Measurements taken from paper PMC10747088, “Self-Penetrating Oligonucleotide Derivatives: Features of Self-Assembly and Interactions with Serum and Intracellular Proteins”.

B1: FAM-TZD17 (FAM-TZ17) (ssDNA)
DNA: AGTCTCGACTTGCTATT
modifications: triazinyl phosphoramidate with two dodecyl groups at the last internucleotide phosphate (T16*T17)
B2: FAM-TZD16 (FAM-TZ16) (ssDNA)
DNA: CTGACTATGAAGTATT
modifications: triazinyl phosphoramidate with two dodecyl groups at the last internucleotide phosphate (T15*T16)

Molecular target: human serum albumin (HSA) (Homo sapiens, UniProt P02768 25-609)
Experiment: fluorescence titration (FAM); PBS; 10 uM oligomer; HSA Kd: 10 uM oligomer, PBS, 30 min, 25 C (Methods) or 37 C (Figure S7); HSA EMSA: TA/TAM buffer, 1 h, native 8% PAAG at 37 C; Ku/PARP1 EMSA: 50 mM Tris-HCl pH
Conditions: protein: commercial, label: 5'-FAM, single strand, micelles

Chain of human serum albumin (HSA) (P02768 25-609): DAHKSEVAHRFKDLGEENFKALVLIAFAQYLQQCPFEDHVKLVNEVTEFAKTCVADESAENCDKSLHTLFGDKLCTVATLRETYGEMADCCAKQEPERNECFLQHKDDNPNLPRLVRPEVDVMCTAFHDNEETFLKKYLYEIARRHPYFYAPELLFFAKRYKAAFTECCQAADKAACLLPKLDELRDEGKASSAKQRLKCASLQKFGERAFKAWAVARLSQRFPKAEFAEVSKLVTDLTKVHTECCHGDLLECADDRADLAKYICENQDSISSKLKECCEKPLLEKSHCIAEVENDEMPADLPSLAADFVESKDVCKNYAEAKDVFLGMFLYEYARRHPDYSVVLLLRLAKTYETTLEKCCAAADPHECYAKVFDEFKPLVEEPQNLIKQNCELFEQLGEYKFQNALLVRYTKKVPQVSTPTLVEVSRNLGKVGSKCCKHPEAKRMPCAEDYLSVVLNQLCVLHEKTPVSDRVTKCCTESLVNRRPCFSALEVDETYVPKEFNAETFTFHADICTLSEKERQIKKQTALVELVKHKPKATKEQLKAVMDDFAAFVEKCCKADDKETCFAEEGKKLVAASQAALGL

Row | Binder | Kd (can form weak hairpin or self-dimers) | Kd
1 | B1 | 1200 ± 200 nM | 
2 | B2 |  | 1500 ± 100 nM
